The values below come from patent US20190315873A1 (AGOMAB THERAPEUTICS, published 2019).

A value given as a limit tells only on which side of the number the result lay.

Test [1] deals with T1, mouse MET ECD (mouse, UniProt P16056 25-931).
T1 construct: range 1-931; recombinant ECD; also called mMET; mouse MET extracellular domain
The experiment in a line: ELISA, mouse-format mAb on MET ECD. The method, then: (§1) In order to directly determine whether—and to what extent—the prior art agonistic anti-MET antibodies cross-reacted with mouse MET, and to compare them to our human/mouse equivalent anti-MET antibodies, we performed an ELISA assay. Since all prior art antibodies were obtained or engineered with a mouse IgG/A format, we employed the mouse IgG/A version of 71G3, 71D6 and 71G2. Human or mouse MET ECD was immobilized in solid phase (100 ng/well in a 96-well plate) and exposed to increasing concentrations of antibodies (0-40 nM) in solution. […] Among the antibodies tested, only 71G3, 71D6 and 71G2 bound to both human and mouse MET, and they did so with indistinguishable affinities and capacities.
(In general: An ELISA detects its analyte on a solid surface through an enzyme-linked reagent.)

The target of test [2] is T2, human MET ECD (human, UniProt P08581 25-932).
T2 construct: range 1-932; recombinant ECD made by standard protein engineering; also called hMET; human MET extracellular domain
Kind of test: ELISA, mouse-format mAb on MET ECD. On the procedure:
as §1

The target of test [3] is human MET on A549 human lung carcinoma cells (human) (UniProt P08581). The experiment in a line: cell-based or functional assay.
The target of test [4] is mouse MET on MLP29 mouse liver precursor cells (mouse) (UniProt P16056). The experiment in a line: cell-based or functional assay.
In test [5] the target is rat MET ECD (rat) (UniProt P97523). Kind of test: ELISA: MET ECD immobilized (100 ng/well), mAb in human IgG1/lambda format in solution (0-40 nM), HRP anti-human Fc.
Test [6] concerns the target T1, mouse MET ECD. The test is described as above. An excerpt:
(§2) To this end, we investigated whether our human/mouse equivalent anti-MET antibodies cross-reacted with MET from other species, including rat (Rattus norvegicus) and cynomolgus monkey (Macaca fascicularis). […] Human and mouse MET ECD were used as controls. A restricted panel of antibodies representative of both SEMA binders (71D6, 71C3, 71D4, 71A3, 71G2) and PSI binders (76H10, 71G3) was selected. The 5D5 prior art antibody was used as control. MET ECD proteins were immobilized in solid phase (100 ng/well in a 96-well plate) and exposed to increasing concentrations (0-40 nM) of antibodies (with human constant regions) in solution. […] We conclude that the 71D6, 71C3, 71D4, 71A3, 71G2, 76H10 and 71G3 antibodies bind with similar affinity and capacity to human MET, mouse MET, rat MET and simian MET, at least as determined by ELISA.

For test [7], the target named is T2, human MET ECD. The description is as above.
Excerpt: as §2

Test [8] deals with T3, monkey MET ECD (cynomolgus monkey, UniProt A0A2K5UM36 25-932).
T3 construct: also called simian MET; cynomolgus monkey MET
The description is as above.
Excerpt: as §2

Test [9] deals with human MET ECD mutant E (mutations 2, 3, 4) (human) (UniProt P08581). The experiment in a line: ELISA on mutant human MET ECD.
Test [10] concerns the target human MET ECD mutant H (mutations 2, 4) (human) (UniProt P08581). Kind of test: ELISA on mutant human MET ECD.
Test [11] concerns the target human MET ECD mutant D (mutations 1, 2) (human) (UniProt P08581). Kind of test: ELISA on mutant human MET ECD.
The target in test [12] is human MET ECD mutant A (mutations 1, 2, 3) (human) (UniProt P08581). The experiment in a line: ELISA on mutant human MET ECD.

T3 sequence (A0A2K5UM36 entry or part of it limits assumed): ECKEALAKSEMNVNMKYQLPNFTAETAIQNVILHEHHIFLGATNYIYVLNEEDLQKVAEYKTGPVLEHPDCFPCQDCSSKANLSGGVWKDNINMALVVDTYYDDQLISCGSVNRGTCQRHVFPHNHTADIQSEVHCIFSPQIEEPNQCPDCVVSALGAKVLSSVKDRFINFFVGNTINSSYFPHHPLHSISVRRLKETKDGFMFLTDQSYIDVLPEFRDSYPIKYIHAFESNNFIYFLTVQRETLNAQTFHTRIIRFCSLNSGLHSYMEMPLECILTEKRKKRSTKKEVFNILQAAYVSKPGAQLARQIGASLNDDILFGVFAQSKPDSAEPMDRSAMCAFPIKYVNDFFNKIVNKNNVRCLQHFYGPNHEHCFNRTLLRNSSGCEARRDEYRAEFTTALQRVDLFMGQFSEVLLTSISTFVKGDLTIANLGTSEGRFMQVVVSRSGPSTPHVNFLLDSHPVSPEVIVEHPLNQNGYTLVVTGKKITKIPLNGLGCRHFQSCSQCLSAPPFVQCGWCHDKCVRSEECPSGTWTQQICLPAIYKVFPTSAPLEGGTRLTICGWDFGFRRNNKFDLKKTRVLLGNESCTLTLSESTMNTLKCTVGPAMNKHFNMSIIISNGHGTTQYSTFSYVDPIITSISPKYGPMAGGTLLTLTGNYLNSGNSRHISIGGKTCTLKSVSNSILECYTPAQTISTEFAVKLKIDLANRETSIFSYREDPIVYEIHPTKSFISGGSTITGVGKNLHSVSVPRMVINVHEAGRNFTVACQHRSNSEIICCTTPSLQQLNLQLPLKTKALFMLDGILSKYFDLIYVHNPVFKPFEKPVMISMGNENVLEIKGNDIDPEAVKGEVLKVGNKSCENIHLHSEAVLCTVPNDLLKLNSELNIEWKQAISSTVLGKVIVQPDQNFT
Sequence of rat MET ECD (rat) (P97523 25-931 limits assumed, form in doubt): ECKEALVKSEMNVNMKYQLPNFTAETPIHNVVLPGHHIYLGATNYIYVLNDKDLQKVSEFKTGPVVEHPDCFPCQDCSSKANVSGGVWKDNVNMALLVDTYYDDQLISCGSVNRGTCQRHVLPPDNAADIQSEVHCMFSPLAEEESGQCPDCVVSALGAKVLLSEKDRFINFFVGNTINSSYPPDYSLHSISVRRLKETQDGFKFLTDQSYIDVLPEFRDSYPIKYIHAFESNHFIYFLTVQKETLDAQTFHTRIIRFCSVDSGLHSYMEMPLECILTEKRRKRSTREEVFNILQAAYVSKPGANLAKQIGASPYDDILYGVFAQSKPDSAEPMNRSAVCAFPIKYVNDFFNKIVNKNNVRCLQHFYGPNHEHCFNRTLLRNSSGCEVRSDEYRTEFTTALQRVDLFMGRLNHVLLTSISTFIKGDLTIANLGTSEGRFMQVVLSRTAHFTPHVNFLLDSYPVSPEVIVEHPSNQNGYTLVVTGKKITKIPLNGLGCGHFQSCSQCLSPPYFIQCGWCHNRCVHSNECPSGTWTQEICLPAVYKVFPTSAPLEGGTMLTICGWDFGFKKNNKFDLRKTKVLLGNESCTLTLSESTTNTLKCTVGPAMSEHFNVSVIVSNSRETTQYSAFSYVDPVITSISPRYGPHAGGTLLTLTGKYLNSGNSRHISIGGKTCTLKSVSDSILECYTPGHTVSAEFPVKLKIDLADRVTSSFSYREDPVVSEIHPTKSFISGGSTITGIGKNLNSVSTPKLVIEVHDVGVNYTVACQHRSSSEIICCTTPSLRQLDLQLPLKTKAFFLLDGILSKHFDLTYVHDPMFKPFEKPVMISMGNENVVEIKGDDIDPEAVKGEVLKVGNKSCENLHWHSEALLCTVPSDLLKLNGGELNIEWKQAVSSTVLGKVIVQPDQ

By EC50 is commonly meant the concentration giving half of the maximal effect. For “5D5 anti-human MET antibody, mouse IgG1/lambda format”, the EC50 in test [1] was more than 40 nM. In test [2], the EC50 was found to be 0.197 nM and the EMAX is 3.16 OD450.
In [3], “recombinant human HGF (from UniProt P14210 32-728) (ligand)” returned a phospho-MET ELISA EC50 of 0.19 nM and a phospho-MET ELISA EMAX (% HGF activity) of 100.
For “recombinant mouse HGF (from UniProt Q08048 33-728) (ligand)”, in [4], the phospho-MET ELISA EC50 is 0.23 nM and the phospho-MET ELISA EMAX (% HGF activity) is 100.

B1: 71D6 llama-human chimeric mAb (human IgG1/lambda) (antibody)
heavy: ELQLVESGGGLVQPGGSLRLSCAASGFTFSSYGMSWVRQAPGKGLEWVSAINSYGGSTSYADSVKGRFTISRDNAKNTLYLQMNSLKPEDTAVYYCAKEVRADLSRYNDYESYDYWGQGTQVTVSSASTKGPSVFPLAPSSKSTSGGTAALGCLVKDYFPEPVTVSWNSGALTSGVHTFPAVLQSSGLYSLSSVVTVPSSSLGTQTYICNVNHKPSNTKVDKKVEPKSCDKTHTCPPCPAPELLGGPSVFLFPPKPKDTLMISRTPEVTCVVVDVSHEDPEVKFNWYVDGVEVHNAKTKPREEQYNSTYRVVSVLTVLHQDWLNGKEYKCKVSNKALPAPIEKTISKAKGQPREPQVYTLPPSRDELTKNQVSLTCLVKGFYPSDIAVEWESNGQPENNYKTTPPVLDSDGSFFLYSKLTVDKSRWQQGNVFSCSVMHEALHNHYTSEVFVPQSRKVI
light: QPVLNQPSALSVTLGQTAKITCQGGSLGARYAHWYQQKPGQAPVLVIYDDDSRPSGIPERFSGSSSGGTATLTISGAQAEDEGDYYCQSADSSGSVFGGGTHLTVLQPKAAPSVTLFPPSSEELQANKATLVCLISDFYPGAVTVAWKADSSPVKAGVETTTPSKQSNNKYAASSYLSLTPEQWKSHRSYSCQVTHEGSTVEKTVAPTECS
Broadly, the EC50 (read off the curve) is the concentration at which the effect is half-maximal. Take B1: the EC50 (read off the curve) in test [5] was 0.1 nM; in test [6], approximately 0.1 nM; in [7], approximately 0.1 nM; in test [8], approximately 0.1 nM. For the same molecule, the % binding (EMAX) vs WT MET ECD in test [9] was found to be 43.6%; in [10] it was 38.6%; in test [11], 128%; in test [12], 103%.

B2: 71C3 llama-human chimeric mAb (human IgG1/lambda) (antibody, V domains shown)
VH: QLQLVESGGGLVQPGGSLRLSCAASGFTFSSHAMSWVRQAPGKGLEWVSAINSGGGSTSYADSVKGRFTISRDNAKNTLYLQMNSLKPEDTAVYYCAKELRFDLARYTDYEAWDYWGQGTQVTVSS
VL: SYELTQPSALSVTLGQTAKITCQGGSLGSSYAHWYQQKPGQAPVLVIYDDDSRPSGIPERFSGSSSGGTATLTISGAQAEDEGDYYCQSADSSGNAAVFGGGTHLTVLQ
For the molecule B2, the EC50 (read off the curve) in test [5] is 0.3 nM; in test [6] it was approximately 0.1 nM; in [7], approximately 0.1 nM; in test [8] it was approximately 0.1 nM. Moreover, the % binding (EMAX) vs WT MET ECD in [9] amounted to 59.6%; in [10] it was 61.6%; in [11], 102%; in [12], 99.8%.

B3: 71A3 llama-human chimeric mAb (human IgG1/lambda) (antibody, V domains shown)
VH: EVQLVESGGGLVQPGGSLRLSCAASGFSFKDYDITWVRQAPGKGLEWVSTITSRSGSTSYVDSVKGRFTISGDNAKNTLYLQMNSLKPEDTAVYYCAKVYATTWDVGPLGYGMDYWGKGTLVTVSS
VL: SYELTQPSALSVTLGQTAKITCQGGSLGSSYAHWYQQKPGQAPVLVIYDDDSRPSGIPERFSGSSSGGTATLTISGAQAEDEGDYYCQSADSSGNAAVFGGGTHLTVLQ
Turning to B3, the EC50 (read off the curve) in [5] is 0.1 nM; in test [6] it was approximately 0.07 nM; in test [7], approximately 0.09 nM; in [8] it was approximately 0.1 nM. Moreover, the % binding (EMAX) vs WT MET ECD is 65.4% in test [9], 76.7% in test [10], 128% in test [11] and 117% in test [12].

B4: 71D4 llama-human chimeric mAb (human IgG1/lambda) (antibody, V domains shown)
VH: ELQLVESGGGLVQPGGSLRLSCAASGFTFSGYGMSWVRQAPGKGLEWVSDINSGGGSTSYADSVKGRFTISRDNAKNTLYLQMNSLKPEDTAVYYCAKDMRLYLARYNDYEAWDYWGQGTQVTVSS
VL: SSALTQPSALSVTLGQTAKITCQGGSLGSSYAHWYQQKPGQAPVLVIYDDDSRPSGIPERFSGSSSGGTATLTISGAQAEDEGDYYCQSADSSGNAAVFGGGTHLTVLQ
As to B4, the half-maximal effective concentration (EC50 (read off the curve)) in [5] is 0.2 nM; in [6], approximately 0.2 nM; in test [7], approximately 0.2 nM; in test [8] it was approximately 0.1 nM. In addition, the % binding (EMAX) vs WT MET ECD was determined as 57.2% in [9], 58.7% in test [10], 120% in [11] and 114% in test [12].

B5: DN-30 mouse anti-human MET antibody (antibody, from another filing, V domains shown)
VH: QVQLQQPGTELVKPGASVKLSCKASGYTFTSYWIHWVKQRPGQGLEWIGEINPSSGRTNYNEKFKNKVTVTVDKSSTTAYMQLSNLTSEDSAVYYCASRGYWGQGTTLTVSS
VL: DIVLTQSPASLAVSLGQRATISCKASQSVDYDGGSYMSWFQQRPGQPPKLLISAASNLESGIPARFSGSGSGTDFTLNIHPVEEEDVATYYCQQSYEDPLTFGAGTKLELKR
In [1], B5 registered an EC50 of more than 40 nM. Further, in [2], the EC50 amounted to 0.067 nM and the EMAX turned out to be 3.06 OD450.

B6: 71G2 llama-human chimeric mAb (human IgG1/lambda) (antibody)
heavy: EVQLQESGGGLVQPGGSLRLSCAASGFTFSIYDMSWVRQAPGKGLEWVSTINSDGSSTSYVDSVKGRFTISRDNAKNTLYLQMNSLKPEDTAVYYCAKVYGSTWDVGPMGYGMDYWGKGTLVTVSSASTKGPSVFPLAPSSKSTSGGTAALGCLVKDYFPEPVTVSWNSGALTSGVHTFPAVLQSSGLYSLSSVVTVPSSSLGTQTYICNVNHKPSNTKVDKKVEPKSCDKTHTCPPCPAPELLGGPSVFLFPPKPKDTLMISRTPEVTCVVVDVSHEDPEVKFNWYVDGVEVHNAKTKPREEQYNSTYRVVSVLTVLHQDWLNGKEYKCKVSNKALPAPIEKTISKAKGQPREPQVYTLPPSRDELTKNQVSLTCLVKGFYPSDIAVEWESNGQPENNYKTTPPVLDSDGSFFLYSKLTVDKSRWQQGNVFSCSVMHEALHNHYTSEVFVPQSRKVI
light: SSALTQPSALSVSLGQTARITCQGGSLGSSYAHWYQQKPGQAPVLVIYGDDSRPSGIPERFSGSSSGGTATLTISGAQAEDEDDYYCQSTDSSGNTVFGGGTRLTVLQPKAAPSVTLFPPSSEELQANKATLVCLISDFYPGAVTVAWKADSSPVKAGVETTTPSKQSNNKYAASSYLSLTPEQWKSHRSYSCQVTHEGSTVEKTVAPTECS
For B6, the EC50 (read off the curve) in test [5] is 0.1 nM; in test [6], approximately 0.06 nM; in test [7], approximately 0.1 nM; in test [8], approximately 0.07 nM. The % binding (EMAX) vs WT MET ECD in test [9] came out at 41.4%; in [10], 40.2%; in test [11] it was 114%; in [12] it was 92.1%.
